Measured values: patent US6071709A, “Nerve growth factor/receptor complex” (The United States of America as represented by the …, priority 1992, dated 2000)

Assays:
p140^prototrk [1] = assay: NGF-dependent trk tyrosine phosphorylation in SY5Y cells; assay type: cell-based, human; settings: 100 ng/ml NGF for 5 min
From the text: (§1) FIGS. 4A-B show NGF-dependent tyrosine phosphorylation of gp140trk in the human neuroblastoma cell lines LA-N-5, SY5Y, and dorsal root ganglia from mouse embryos. FIG. 4A, gp140trk was immunoprecipitated from untreated (-) or NGF treated (+) LA-N-5 cells (K. H. Sonnenfeld and D. N. Ishii, J. Neurosci. Res. 8:375-391 (1982)), SY5Y cells (K. H. Sonnenfeld and D. N. Ishii, (1982)), NR18 cells (M. A. Bothwell et al., Cell 21:857-866 (1980)), or PC12 cells. Immunoprecipitates were probed with P-tyr antibodies. The differences in trk protein mobilities are due to differences in glycosylation. FIG. 4B, Tyrosine phosphorylation of gp140trk in DRGs from 13.5 day or 14.5 day embryonic mice. DRGs were maintained in 100 ng/ml NGF for ≥10 min prior to lysis and immunoprecipitation with trk antibodies. trk immunoprecipitates were probed with P-tyr antibody. Tyrosine phosphorylated gp140trk from NGF-treated (+) PC12 cells or untreated (-) PC12 cells is shown for comparison. Samples were normalized for cell protein. Molecular weight markers in kDa are indicated.
(§2) Cell lines were treated with 100 ng/ml NGF for 5 min and gp140trk immunoprecipitated as in FIG. 1. DRGs were prepared by dissection for 13.5 or 14.5 day mouse embryos. […] Lysates were immunoprecipitated with trk antibody and the trk proteins were analyzed by antiphosphotyrosine immunoblots. […]

p140^prototrk [2] = biological target: p140^prototrk (Rattus norvegicus, UniProt P35739); assay: NGF-dependent trk tyrosine phosphorylation in NR18 cells (PC12 derivative); assay type: cell-based; set-up: the phosphorylation state of the trk receptor on the NR18 cell line; endogenous in cells; host or cells: NR18 cells; settings: 100 ng/ml NGF for 5 min
From the text: as §1, §2

gp140^prototrk = biological target: T1, gp140^prototrk (Rattus norvegicus, UniProt P35739); assay: trk tyrosine phosphorylation in PC12 cells treated with NGF (32P labelling / Ptyr immunoblot of trk immunoprecipitates); assay type: cell-based
T1 construct: tyrosine phosphorylation in response to NGF addition to PC12 cells; endogenous in cells; host or cells: PC12 cells
Description: FIGS. 1A-C show the tyrosine phosphorylation of gp140trk in PC12 cells and trk-expressing NIH-3T3 cells treated with NGF. FIG. 1A, gp140trk immunoprecipitated from PC12 cells or trk-expressing 3T3 cells labeled with ^32 P-orthophosphate. Immunoprecipitates were prepared with rabbit anti-trk antisera 43-4 (D. Martin-Zanca et al., Mol Cell. Biol. 9:24-33 (1989)) from lysates prepared from 3T3 cells expressing the rat trk gene (trk 3T3) (lane 1) or PC12 cells treated for 5 min with 100 ng/ml NGF at 37° C. (lanes 2 and 4) or mock treated (lane 3). The immunoprecipitate shown in lane 2 was prepared in the presence of the peptide used to generate the rabbit 43-4 trk antibody (Martin-Zanca et al., (1989)). Shown in FIG. 1B is the phosphoamino acid analysis of trk proteins phosphorylated in vitro in p140trk immunoprecipitates from NGF treated PC12 cells in vivo from NGF treated (+) or untreated (-) PC12 cells, or in vivo from trk 3T3 cells. The positions of phosphoserine (S), phosphothreonine (T), and phosphotyrosine (Y) are indicated. FIG. 1C, trk proteins from trk 3T3 cells phosphorylated […]. In lanes 1-3, gp140trk immunoprecipitates were probed with P-tyr antibodies. In lanes 4-6, gp140trk proteins were phosphorylated in vitro in kinase assays. Cells were treated with suramin (lanes 2 and 5) or with 500 ng/ml NGF for 10 min following suramin treatment. The band migrating at 110 kDa is a glycosylation precursor of gp140^prototrk (Martin-Zanca et al., (1989)). The band at the bottom of the figure is IgG. Molecular weight markers in kDa are indicated.
rtrk 3T3 cells were generated by CaPO4 mediated transfection of a rat trk cDNA into NIH-3T3 cells. Rat trk cDNAs were obtained from an embryonic rat DRG cDNA library. The longest trk cDNA obtained (2.4 kbp) was missing approximately 150 bp of the coding region as compared to available mouse and human trk sequence. The missing bases plus minimal (~50 bp) 5' flanking non-coding sequences were replaced from mouse first coding exon sequences and the reconstructed gene was placed downstream of an MSV-LTR. PC12 cells or rtrk 3T3 cells (2×10^7) were labeled with ^32 P orthophosphate (1 mCi.ml in 4 ml) for 4 hr at 37° C. Cells were treated with NGF for the indicated times, washed, lysed in buffer containing 1% NP40, and the lysates immunoprecipitated with trk antibody 43-4 (D. R. Kaplan et al., Cell 61:125-133 (1990)) and electrophoresed on 7.5% SDS-PAGE gels as previously described (Kaplan et al., (1990)). For b, the phosphorylated trk bands were eluted from the gel and phosphoamino acid analysis performed as described (B. M. Sefton et al., J. Cell 24:165-174 (1981)). gp140trk protein from NGF treated PC12 cells was phosphorylated in vitro. For c, rtrk 3T3 cells were treated with 1 mM suramin in Dulbecco's Modified Eagle Medium (DMEM) for 2 h or mock treated. Following extensive washing of the cells with DMEM, NGF was added for the time indicated. Cells were lysed and the lysates were immunoprecipitated with trk antibody. Immunoprecipitates were either subjected to immunoblot analysis with the phosphotyrosine (Ptyr) monoclonal antibody 4G10 (Lanes 1-3), or were analyzed in kinase assays. (D. K. Morrison, et al. Cell 58:649-657 (1989) and Kaplan et al., (1990)). Similar amounts of trk protein were present in each lane.
FIGS. 2A-C. Time course, growth factor specificity, and dose response of trk tyrosine phosphorylation in PC12 cells. A, Time course of trk tyrosine phosphorylation. Cells (2×10^7) were treated with 50 ng/ml NGF at 37° C. B, Effects of growth and differentiation factors on trk tyrosine phosphorylation. Cells were treated with 100 ng/ml NGF, 100 ng/ml basic fibroblast growth factor (FGF) (Boehringer Mannheim Biochemicals), 100 ng/ml epidermal growth factor (EGF) (Upstate Biotechnology, Inc.), 100 nM insulin (Sigma), or 1 μg/ml phorbal 12-myristate […] (PMA) (Sigma) for 15 min. at 37° C. C, dose response of trk tyrosine phosphorylation. […]

T1 sequence (P35739 33-799): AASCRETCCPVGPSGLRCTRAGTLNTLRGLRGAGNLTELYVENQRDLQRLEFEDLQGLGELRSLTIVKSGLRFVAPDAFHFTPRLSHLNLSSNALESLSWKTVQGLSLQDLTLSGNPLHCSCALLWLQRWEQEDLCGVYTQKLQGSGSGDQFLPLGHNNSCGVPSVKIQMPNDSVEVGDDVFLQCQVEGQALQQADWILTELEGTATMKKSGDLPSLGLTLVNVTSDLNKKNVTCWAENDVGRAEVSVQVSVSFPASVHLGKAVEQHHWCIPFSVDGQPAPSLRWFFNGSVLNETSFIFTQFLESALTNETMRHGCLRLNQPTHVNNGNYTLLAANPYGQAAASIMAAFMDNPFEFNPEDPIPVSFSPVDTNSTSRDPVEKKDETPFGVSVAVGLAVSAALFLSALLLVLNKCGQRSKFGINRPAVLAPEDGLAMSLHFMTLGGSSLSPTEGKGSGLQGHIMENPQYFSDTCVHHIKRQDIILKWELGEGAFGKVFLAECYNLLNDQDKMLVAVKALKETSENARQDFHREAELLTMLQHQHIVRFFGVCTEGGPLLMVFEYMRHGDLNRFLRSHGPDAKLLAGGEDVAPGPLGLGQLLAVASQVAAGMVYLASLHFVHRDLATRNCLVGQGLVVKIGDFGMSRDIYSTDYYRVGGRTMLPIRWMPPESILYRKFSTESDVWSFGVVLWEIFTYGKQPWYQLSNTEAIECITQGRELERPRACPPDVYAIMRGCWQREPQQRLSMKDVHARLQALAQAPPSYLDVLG
Sequence of p140^prototrk (Rattus norvegicus, UniProt P35739) (P35739 33-799): as above

NGF: neurotrophic polypeptide factor, nerve growth factor; ligand of trk proto-oncogene receptor
p140^prototrk tyrosine phosphorylation (p140^prototrk [1]): enhanced
p140^prototrk phosphorylation in response to NGF (p140^prototrk [2]): no phosphorylation
time to maximum levels of trk tyrosine phosphorylation (gp140^prototrk; 50 ng/ml NGF, 37° C.): five
stimulation of tyrosine phosphorylation of gp140^prototrk (gp140^prototrk; 32P-orthophosphate labelled, 50 ng/ml NGF for 5 min): 20 fold
half maximal tyrosine phosphorylation concentration (gp140^prototrk; 30 min at 37° C., dose response): 0.1 ng/mL
trk tyrosine phosphorylation after two days of treatment (gp140^prototrk; fully differentiated, two days of NGF): Residual phosphorylation was detected
